Source: patent CN113735970A (INST MILITARY MEDICINE ACADEMY MILITARY SCIENCES PLA, dated 2021)

Assays:
SARS-CoV-2 WT S-ECD蛋白 = SARS-CoV-2 WT S-ECD蛋白 (SARS-CoV-2, UniProt P0DTC2 14-1213)
SARS-CoV-2 WT RBD蛋白 = SARS-CoV-2 WT RBD蛋白 (SARS-CoV-2, UniProt P0DTC2 319-541)

B1: 抗SARS-CoV-2全人源单克隆抗体ZWC6 (antibody, human IgG1, kappa, V domains shown)
VH: EVQLVESGGGVVQPGTSLRLSCAASGFSFSHYVMYWVRQAPGKGLDWVAIISFDGSSQYYADSVKGRFTISRDNSKDTLYLQMHSLRPEDTAVYYCAIHGGTYYYDKNILAWGQGTLVTVSS
VL: AIRMTQSPPTLSLSPGERATLSCRASQSVTNYLVWYQQKPGQAPRLLIYDTFNRATGIPARFSGSGSGTDFTLTISSLEPEDFAVYYCQQRSNWPPTFGQGTKVDIKR
B1 showed a Kd (SARS-CoV-2 WT S-ECD蛋白) of 1.49 nM, a koff (SARS-CoV-2 WT S-ECD蛋白) of 0.000255 s⁻¹ and a kon (SARS-CoV-2 WT S-ECD蛋白) of 171000 M⁻¹ s⁻¹. The Kd (SARS-CoV-2 WT RBD蛋白) was 0.683 nM, the koff (SARS-CoV-2 WT RBD蛋白) was 0.000365 s⁻¹ and the kon (SARS-CoV-2 WT RBD蛋白) was 535000 M⁻¹ s⁻¹.
